From paper PMC3520109 (mBio, 2012)

Assays:
43A-c = conditions: read-out: apparent Km; 100 mM citrate pH 6, 1 g/liter BSA, 50°C
purified protein = substrate: O=[N+]([O-])c1ccc(O[C@@H]2O[C@H](CO)[C@@H](O)[C@H](O)[C@H]2O)cc1; assay: purified protein; conditions: 100 mM citrate pH 6, 1 g/liter BSA, 50°C

Km (43A-c) | Molecule | Km (purified protein) | kcat (purified protein)
600 µM | O=[N+]([O-])c1ccc(O[C@@H]2OC[C@@H](O)[C@H](O)[C@H]2O)cc1 [pNPX] | – | –
– | Bgl1C (Thermobifida fusca) (protein) TSQSTTPLGNLEETPKPDIRFPSDFVWGVATASFQIEGSTTADGRGPSIWDTFCATPGKVENGDTGDPACDHYNRYRDDVALMRELGVGAYRFSIAWPRIQPEGKGTPVEAGLDFYDRLVDCLLEAGIEPWPTLYHWDLPQALEDAGGWPNRDTAKRFADYAEIVYRRLGDRITNWNTLNEPWCSAFLGYASGVHAPGRQEPAAALAAAHHLMLGHGLAAAVMRDLAGQAGRSVRIGVAHNQTTVRPYTDSEADRDAARRIDALRNRIFTEPLVKGRYPEDLIEDVAAVTDYSFVQDGDLKTISANLDMMGVNFYNPSWVSGNRENGGSDRLPDEGYSPSVGSEHVVEVDPGLPVTAMGWPIDPTGLYDTLTRLANDYPGLPLYITENGAAFEDKVVDGAVHDTERIAYLDSHLRAAHAAIEAGVPLKGYFAWSFMDNFEWALGYGKRFGIVHVDYESQTRTVKDSGWWYSRVMRNGGIFGQE | 600 µM | 2.08 s⁻¹
